# In US20160129078A1, “Rhomboid Proteins and Uses Thereof” (Queen's University at Kingston, priority 2014, published 2016):
# B1: At1g74130 S: 6/7 S-form splice variant of Arabidopsis At1g74130 rhomboid protein (protein, listed as Arabidopsis thaliana)
# chain: MHAIFCRRVAVGCSSPQLTKLVTKQASQSRHSLSHLLPFDLSSRFVPPYVVSRSARVHGFFAGKLGNTNLKLKFGNVMESRAGFFSSELPSHGFESGGFTGFQKRGWKSWINGANGVVFGLVIANAAVFTMWRVLGKDNMWMVKNFMLSRYSFMTGRIHTLITSGFSHVGATHIILNMMGLCYFGARIARSFGPRYLLKLYFAGALGGSVFFLSSHALSVISLKGQRVVPKDQLKVPIGKLGANGPVYAITLLDMLLYPKVTTYFGLMLRVPVFAVRESIA
# Tested on: MDA-MB-468 breast cancer cells
# Test: MTT viability assay, sensitization to lapatinib
# Format: cell-based, human
# Details: co-treatment with lapatinib; most prominent at 10 or 15 uM after 48 and 72 hours; 5 or 10 ug protein
# Excerpt: Experiments were thus conducted to assess the ability of At1g74130 proteins or variants to enhance the sensitivity of two breast cancer cell lines to the chemotherapeutic drug lapatinib. The breast cancer cell lines selected for these assays were MDA-MB-231 and MDA-MB-468, two cell lines used frequently in cancer research. Any impact on the cells' ability to pump or transport drugs (in and out) may alter the efficacy a chemotherapeutic drug, e.g., by enhancing levels of cell death) or by increasing effectiveness at lower dosage levels. The design of the breast cancer cell assays was similar to that used for bacteria in the above examples, results, and figures. In these studies, the widely used MTT (methyl thiazolyl diphenyl-tetrazolium bromide) viability assay procedure was used to assess any impact exerted by At1g74130 variant S (see, for example, the MTT procedure described by Nagaria, T. S., et al., Flavopiridol synergizes with sorafenib to induce cytotoxicity and potentiate antitumorigenic activity in EGFR/HER-2 and mutant RAS/RAF breast cancer model systems, Neoplasia, 15:939-951, 2013).
# Cells were cultured at 37° C. in 96-well plates (10,000 cells in 100 ul media per well) for 24-48 hours to near confluency. […] The assays were then read at 570 nm using a microplate scanning spectrophotometer. […]
molecule,measurement,value
B1,increase in level of cell death,20 to 40%
